“And” between values parts separate entries of the source, which are not always exact repeats. Equal entries are not always repeated.
Legend:
Stat3 = test: Western blot for Stat3 phosphorylation in MDA-MB-231 cells; assay type: cell-based, human; conditions: 100 ng/ml, 15 min
Experimental: For western blotting, cells were treated with 100 ng/ml cmvIL-10, hIL-10, IFNγ or PBS for 15 min, then harvested into cell lysis buffer (150 mM NaCl, 20 mM HEPES, 0.5% Triton-X-100, 1 mM NaOV4, 1 mM EDTA, 0.1% NaN3). Lysates were clarified, proteins were separated via SDS-PAGE, and then transferred to a nitrocellulose membrane. Then membrane was incubated in blocking solution (5% milk+1×TBS-T) for 1 hr, then probed with primary antibody at a 1:1000 dilution (total Stat3 or pStat3, total Stat1 or pStat1) in blocking solution overnight at 4° C. After washing, the membranes were incubated with a 1:2000 dilution of appropriate AP-conjugated secondary antibody and bands were detected using Western Blue stabilized AP substrate (Promega, Madison, Wis.). For analysis of secreted proteins, supernatants were collected at various time points, analyzed by SDS-PAGE and then immunoblotted as above for cmvIL-10, hIL-10, or serpin E1/PAI.

MDA-MB-231 cells [1] = test: Migration assay toward EGF (modified Boyden chamber); assay type: cell-based, human; conditions: 5 hrs
Experimental: Cells were harvested and resuspended at a density of 2×10^6 cells per ml in complete medium. A total volume of 0.1 ml cell suspension (2×10^5 cells) was placed in the upper chamber of a ThinCert filter with 8 μm pores in a 24-well plate (Greiner Bio-One North America, Monroe, Calif.). […] Medium from the lower chamber was collected, used to rinse the bottom of the filter twice, and then centrifuged at 1000 rpm for 10 min. The cell pellet was resuspended in 0.1 ml media and transferred to a white 96-well plate. Viable cell number was quantified using the Cell Titer Glo Assay kit according to the manufacturer's protocol.

MDA-MB-231 cells [2] = test: Transcriptional profiling, Human Tumor Metastasis RT2 Profiler PCR Array; assay type: cell-based; conditions: 100 ng/mL, 5 hrs
Experimental: RNA was harvested from 10×10^6 MDA-MB-231 cells that were mock treated or treated with 100 ng/mL cmvIL-10 or hIL-10 for 5 hrs using the RNeasy Midi Kit and RNAse-Free DNase set (Qiagen, Valencia, Calif.). From the isolated RNA, cDNA was prepared using the RT^2 First Strand Kit (SA Biosciences, Frederick, Md.) and subsequently loaded into a 96-well breast cancer metastasis profiler PCR array (PAHS-028ZD) with system RT^2 SYBR Green Mastermix (SA Biosciences). The plates were run using the CFX96 Real-Time system cycler (BioRad, Hercules, Calif.) with the following amplification program: 95° C. for 10 min, 95° C. for […] with a slow ramp rate for 1.0 c/sec and 60° C. for 1 min. The data from three biological replicates for each treatment was analyzed by the ΔΔCT method according to manufacturer's instructions using the RT^2 profiler PCR array data analysis program located on the SABiosciences web portal and is reported as fold change relative to control.

B1: cmvIL-10 (protein)
chain: ATTTTIKNTKPQCRPEDYATRLQDLRVTFHRVKPTLQREDDYSVWLDGTVVKGCWGCSVMDWLLRRYLEIVFPAGDHVYPGLKTELHSMRSTLESIYKDMRQCPLLGCGDKSVISRLSQEAERKSDNGTRKGLSELDTLFSRLEEYLHSRK
83 kD band of phosphorylated Stat3 (pStat3) (Stat3): detected | migration response toward EGF with cytokine in lower chamber (MDA-MB-231 cells [1]; 100 ng/ml cytokine plus EGF): significantly increased | cell movement toward cytokine alone (MDA-MB-231 cells [1]; no EGF): did not stimulate cell movement | Fold Change vs. Mock, ACTB (MDA-MB-231 cells [2]; ACTB mRNA): 1.0986 fold | Fold Change vs. Mock, APC (MDA-MB-231 cells [2]; APC mRNA): 0.9681 fold | Fold Change vs. Mock, B2M (MDA-MB-231 cells [2]; B2M mRNA): 0.9597 fold | Fold Change vs. Mock, BRMS1 (MDA-MB-231 cells [2]; BRMS1 mRNA): 0.8029 fold | Fold Change vs. Mock, CCL7 (MDA-MB-231 cells [2]; CCL7 mRNA): 0.8113 fold | Fold Change vs. Mock, CD44 (MDA-MB-231 cells [2]; CD44 mRNA): 1.1473 fold | Fold Change vs. Mock, CD82 (MDA-MB-231 cells [2]; CD82 mRNA): 0.6917 fold | Fold Change vs. Mock, CDH1 (MDA-MB-231 cells [2]; CDH1 mRNA): 0.6288 fold | CDH6 fold change expressed as negative fold (down-regulation) (MDA-MB-231 cells [2]; CDH6 mRNA): −1.23 fold | Fold Change vs. Mock, CDH6 (MDA-MB-231 cells [2]; CDH6 mRNA): 0.811 fold and 0.8113 fold | Fold Change vs. Mock, CDH11 (MDA-MB-231 cells [2]; CDH11 mRNA): 0.9033 fold | Fold Change vs. Mock, CDKN2A (MDA-MB-231 cells [2]; CDKN2A mRNA): 0.8113 fold | Fold Change vs. Mock, CHD4 (MDA-MB-231 cells [2]; CHD4 mRNA): 0.8970 fold | Fold Change vs. Mock, COL4A2 (MDA-MB-231 cells [2]; COL4A2 mRNA): 1.0929 fold | Fold Change vs. Mock, CST7 (MDA-MB-231 cells [2]; CST7 mRNA): 0.7149 fold | Fold Change vs. Mock, CTBP1 (MDA-MB-231 cells [2]; CTBP1 mRNA): 0.6245 fold | Fold Change vs. Mock, CTNNA1 (MDA-MB-231 cells [2]; CTNNA1 mRNA): 0.8816 fold | Fold Change vs. Mock, CTSK (MDA-MB-231 cells [2]; CTSK mRNA): 0.8043 fold | Fold Change vs. Mock, CTSL1 (MDA-MB-231 cells [2]; CTSL1 mRNA): 0.8212 fold | Fold Change vs. Mock, CXCL12 (MDA-MB-231 cells [2]; CXCL12 mRNA): 0.8113 fold | Fold Change vs. Mock, CXCR4 (MDA-MB-231 cells [2]; CXCR4 mRNA): 0.8084 fold | Fold Change vs. Mock, DENR (MDA-MB-231 cells [2]; DENR mRNA): 0.9816 fold | Fold Change vs. Mock, EPHB2 (MDA-MB-231 cells [2]; EPHB2 mRNA): 0.6693 fold | Fold Change vs. Mock, ETV4 (MDA-MB-231 cells [2]; ETV4 mRNA): 0.5418 fold | Fold Change vs. Mock, EWSR1 (MDA-MB-231 cells [2]; EWSR1 mRNA): 0.9465 fold | Fold Change vs. Mock, FAT1 (MDA-MB-231 cells [2]; FAT1 mRNA): 1.2752 fold | Fold Change vs. Mock, FGFR4 (MDA-MB-231 cells [2]; FGFR4 mRNA): 0.5362 fold | Fold Change vs. Mock, FLT4 (MDA-MB-231 cells [2]; FLT4 mRNA): 0.8113 fold | Fold Change vs. Mock, FN1 (MDA-MB-231 cells [2]; FN1 mRNA): 1.1044 fold | Fold Change vs. Mock, FXYD5 (MDA-MB-231 cells [2]; FXYD5 mRNA): 0.9400 fold | Fold Change vs. Mock, GAPDH (MDA-MB-231 cells [2]; GAPDH mRNA): 0.9335 fold | Fold Change vs. Mock, GNRH1 (MDA-MB-231 cells [2]; GNRH1 mRNA): 0.9970 fold | Fold Change vs. Mock, HGF (MDA-MB-231 cells [2]; HGF mRNA): 0.8113 fold | Fold Change vs. Mock, HPRT1 (MDA-MB-231 cells [2]; HPRT1 mRNA): 1.2796 fold | Fold Change vs. Mock, HPSE (MDA-MB-231 cells [2]; HPSE mRNA): 0.8620 fold | Fold Change vs. Mock, HRAS (MDA-MB-231 cells [2]; HRAS mRNA): 1.0075 fold | Fold Change vs. Mock, HTATIP2 (MDA-MB-231 cells [2]; HTATIP2 mRNA): 0.7439 fold | Fold Change vs. Mock, IGF1 (MDA-MB-231 cells [2]; IGF1 mRNA): 0.8635 fold | Fold Change vs. Mock, IL1B (MDA-MB-231 cells [2]; IL1B mRNA): 0.6266 fold | Fold Change vs. Mock, IL18 (MDA-MB-231 cells [2]; IL18 mRNA): 0.7362 fold | Fold Change vs. Mock, ITGA7 (MDA-MB-231 cells [2]; ITGA7 mRNA): 0.561 fold and 0.5609 fold | ITGA7 fold change expressed as negative fold (down-regulation) (MDA-MB-231 cells [2]; ITGA7 mRNA): −1.78 fold | Fold Change vs. Mock, ITGB3 (MDA-MB-231 cells [2]; ITGB3 mRNA): 1.0198 fold | Fold Change vs. Mock, KISS1R (MDA-MB-231 cells [2]; KISS1R mRNA): 0.8113 fold | Fold Change vs. Mock, KISS1 (MDA-MB-231 cells [2]; KISS1 mRNA): 1.1394 fold | Fold Change vs. Mock, KRAS (MDA-MB-231 cells [2]; KRAS mRNA): 1.0304 fold | Fold Change vs. Mock, MCAM (MDA-MB-231 cells [2]; MCAM mRNA): 0.768 fold and 0.7688 fold | MCAM fold change expressed as negative fold (down-regulation) (MDA-MB-231 cells [2]; MCAM mRNA): −1.32 fold | Fold Change vs. Mock, MDM2 (MDA-MB-231 cells [2]; MDM2 mRNA): 0.9531 fold | Fold Change vs. Mock, MET (MDA-MB-231 cells [2]; MET mRNA): 0.9833 fold | Fold Change vs. Mock, METAP2 (MDA-MB-231 cells [2]; METAP2 mRNA): 1.1295 fold | Fold Change vs. Mock, MGAT5 (MDA-MB-231 cells [2]; MGAT5 mRNA): 1.1795 fold | Fold Change vs. Mock, MMP2 (MDA-MB-231 cells [2]; MMP2 mRNA): −1.1101 fold | Fold Change vs. Mock, MMP3 (MDA-MB-231 cells [2]; MMP3 mRNA): 2.75 fold and 2.7478 fold | Fold Change vs. Mock, MMP7 (MDA-MB-231 cells [2]; MMP7 mRNA): 0.9416 fold | Fold Change vs. Mock, MMP9 (MDA-MB-231 cells [2]; MMP9 mRNA): 1.0233 fold | Fold Change vs. Mock, MMP10 (MDA-MB-231 cells [2]; MMP10 mRNA): 0.5980 fold | Fold Change vs. Mock, MMP11 (MDA-MB-231 cells [2]; MMP11 mRNA): 0.7026 fold | Fold Change vs. Mock, MMP13 (MDA-MB-231 cells [2]; MMP13 mRNA): 0.8127 fold | Fold Change vs. Mock, MTA1 (MDA-MB-231 cells [2]; MTA1 mRNA): 0.7388 fold | MTSS1 fold change expressed as negative fold (down-regulation) (MDA-MB-231 cells [2]; MTSS1 mRNA): −3.28 fold | Fold Change vs. Mock, MYC (MDA-MB-231 cells [2]; MYC mRNA): 0.8113 fold | Fold Change vs. Mock, MYCL1 (MDA-MB-231 cells [2]; MYCL1 mRNA): 0.5260 fold | Fold Change vs. Mock, NF2 (MDA-MB-231 cells [2]; NF2 mRNA): 1.0742 fold | Fold Change vs. Mock, NME1 (MDA-MB-231 cells [2]; NME1 mRNA): 1.0358 fold | Fold Change vs. Mock, NME4 (MDA-MB-231 cells [2]; NME4 mRNA): 0.8226 fold | Fold Change vs. Mock, NR4A3 (MDA-MB-231 cells [2]; NR4A3 mRNA): 0.5389 fold | Fold Change vs. Mock, PLAUR (MDA-MB-231 cells [2]; PLAUR (uPAR) mRNA): 1.59 fold and 1.5891 fold | Fold Change vs. Mock, PNN (MDA-MB-231 cells [2]; PNN mRNA): 1.3088 fold | Fold Change vs. Mock, PTEN (MDA-MB-231 cells [2]; PTEN mRNA): 0.7809 fold | Fold Change vs. Mock, RB1 (MDA-MB-231 cells [2]; RB1 mRNA): 0.9548 fold | Fold Change vs. Mock, RORB (MDA-MB-231 cells [2]; RORB mRNA): 0.6953 fold | Fold Change vs. Mock, RPLP0 (MDA-MB-231 cells [2]; RPLP0 mRNA): 1.0376 fold | Fold Change vs. Mock, RPSA (MDA-MB-231 cells [2]; RPSA mRNA): 0.9631 fold | Fold Change vs. Mock, SERPINE1 (MDA-MB-231 cells [2]; SERPINE1 (PAI-1) mRNA): 2.68 fold and 2.6818 fold | Fold Change vs. Mock, SET (MDA-MB-231 cells [2]; SET mRNA): 0.9664 fold | Fold Change vs. Mock, SMAD2 (MDA-MB-231 cells [2]; SMAD2 mRNA): 0.6869 fold | Fold Change vs. Mock, SMAD4 (MDA-MB-231 cells [2]; SMAD4 mRNA): 0.8384 fold | Fold Change vs. Mock, SRC (MDA-MB-231 cells [2]; SRC mRNA): 0.5297 fold | Fold Change vs. Mock, SSTR2 (MDA-MB-231 cells [2]; SSTR2 mRNA): 0.5556 fold | Fold Change vs. Mock, SYK (MDA-MB-231 cells [2]; SYK mRNA): 0.8590 fold | Fold Change vs. Mock, TCF20 (MDA-MB-231 cells [2]; TCF20 mRNA): 0.7823 fold | Fold Change vs. Mock, TGEB1 (MDA-MB-231 cells [2]; TGEB1 (Transforming growth factor, beta 1) mRNA): 0.7173 fold | Fold Change vs. Mock, TIMP2 (MDA-MB-231 cells [2]; TIMP2 mRNA): 0.7596 fold | Fold Change vs. Mock, TIMP3 (MDA-MB-231 cells [2]; TIMP3 mRNA): 0.8155 fold | Fold Change vs. Mock, TIMP4 (MDA-MB-231 cells [2]; TIMP4 mRNA): 0.7324 fold | Fold Change vs. Mock, TNFSF10 (MDA-MB-231 cells [2]; TNFSF10 mRNA): 0.8169 fold | Fold Change vs. Mock, TP53 (MDA-MB-231 cells [2]; TP53 mRNA): 0.6180 fold | Fold Change vs. Mock, TRPM1 (MDA-MB-231 cells [2]; TRPM1 mRNA): 0.8113 fold | Fold Change vs. Mock, TSHR (MDA-MB-231 cells [2]; TSHR mRNA): 0.8113 fold | Fold Change vs. Mock, VEGFA (MDA-MB-231 cells [2]; VEGFA mRNA): 0.554 fold and 0.5541 fold | VEGFA fold change expressed as negative fold (down-regulation) (MDA-MB-231 cells [2]; VEGFA mRNA): −1.80 fold

Reference: US20180128830A1, “DETECTION OF HUMAN CYTOMEGALOVIRUS IN BREAST CANCER” (priority 2015, published 2018)
